In patent publication US6482925:
Substitutions are numbered along the chain they refer to. In names and notes the source's numbering stands. Like-named read-outs stand apart in the source and are kept apart here. Blank lines part the entries; values can stand above or below the molecule they belong to.

Assays:
[1] = target: MHC class II molecules on Daudi B cells; test: 51Cr Daudi cell adhesion; wild-type expression titrated by DNA quantity
[2] = target: MHC class II molecules on Daudi B cells; test: 51Cr Daudi cell adhesion to transfected Cos-7 cells; cpm relative to wild-type, background not subtracted
[3] = target: MHC class II molecules on Daudi B cells; test: 51Cr Daudi cell adhesion to transfected Cos-7 cells
[4] = target: MHC class II molecules on Daudi B cells; test: as above; remark: listed apart in the source

reduction of bound cpm against wild-type LAG-3 at comparable expression [1]: 40%
Adhesion (relative to wild-type LAG-3) [2]: 0.08
Molecule: LAG-3 deletion mutant (54/66), deletion of the tip of the external loop (from UniProt P18627 23-492) (receptor)

reduction of bound cpm against wild-type LAG-3 at comparable expression [1]: 40%
Adhesion (relative to wild-type LAG-3) [2]: 0.11
Molecule: LAG-3 deletion mutant (D2), deletion of domain D2 (from UniProt P18627 23-492) (receptor)

fold increase of binding against wild-type LAG-3 [3]: > 3 fold
Adhesion (relative to wild-type LAG-3) [2]: 4.1
B1: LAG-3 mutant R75E (receptor)
chain: LQPGAEVPVVWAQEGAPAQLPCSPTIPLQDLSLLRRAGVTWQHQPDSGPPAAAPGHPLAPGPHPAAPSSWGPRPERYTVLSVGPGGLRSGRLPLQPRVQLDERGRQRGDFSLWLRPARRADAGEYRAAVHLRDRALSCRLRLRLGQASMTASPPGSLRASDWVILNCSFSRPDRPASVHWFRNRGQGRVPVRESPHHHLAESFLFLPQVSPMDSGPWGCILTYRDGFNVSIMYNLTVLGLEPPTPLTVYAGAGSRVGLPCRLPAGVGTRSFLTAKWTPPGGGPDLLVTGDNGDFTLRLEDVSQAQAGTYTCHIHLQEQQLNATVTLAIITVTPKSFGSPGSLGKLLCEVTPVSGQERFVWSSLDTPSQRSFSGPWLEAQEAQLLSQPWQCQLYQGERLLGAAVYFTELSSPGAQRSGRAPGALPAGHLLLFLTLGVLSLLLLVTGAFGFHLWRRQWRPRRFSALEQGIHPRRLRAR

Adhesion (relative to wild-type LAG-3) [2]: 0.91
B2: LAG-3 mutant H63F (receptor)
chain: B1 chain with H63F, E75R

fold reduction of binding against wild-type LAG-3 [3]: 2 fold
Adhesion (relative to wild-type LAG-3) [2]: 0.49
B3: LAG-3 mutant R103A (receptor)
chain: B1 chain with E75R, R103A

fold increase of binding against wild-type LAG-3 [3]: > 3 fold
Adhesion (relative to wild-type LAG-3) [2]: 4.2
B4: LAG-3 mutant R75A (receptor)
chain: B1 chain with E75A

reduction of bound cpm against wild-type LAG-3 at comparable expression [1]: 40%
fold reduction of binding against wild-type LAG-3 [3]: 2 fold
fold reduction of binding against wild-type LAG-3 [4]: > 2 fold
Adhesion (relative to wild-type LAG-3) [2]: 0.45
B5: LAG-3 mutant H56A (receptor)
chain: B1 chain with H56A, E75R

Adhesion (relative to wild-type LAG-3) [2]: 1.02
B6: LAG-3 mutant R107K (receptor)
chain: B1 chain with E75R, R107K

Adhesion (relative to wild-type LAG-3) [2]: 1
B7: wild-type LAG-3 (lymphocyte activation gene 3 protein) (receptor)
chain: B1 chain with E75R

fold increase of binding against wild-type LAG-3 [3]: > 3 fold
Adhesion (relative to wild-type LAG-3) [2]: 3.25
B8: LAG-3 mutant R73E (receptor)
chain: B1 chain with R73E, E75R

Adhesion (relative to wild-type LAG-3) [2]: 0.92
B9: LAG-3 mutant Q13A (receptor)
chain: B1 chain with Q13A, E75R

reduction of bound cpm against wild-type LAG-3 at comparable expression [1]: 40%
Adhesion (relative to wild-type LAG-3) [2]: 0.23
B10: LAG-3 mutant R115A (receptor)
chain: B1 chain with E75R, R115A

Adhesion (relative to wild-type LAG-3) [2]: 0.78
B11: LAG-3 double mutant D133A/R134A (receptor)
chain: B1 chain with E75R, D133A, R134A

reduction of bound cpm against wild-type LAG-3 at comparable expression [1]: 40%
fold reduction of binding against wild-type LAG-3 [3]: 2 fold
Adhesion (relative to wild-type LAG-3) [2]: 0.41
B12: LAG-3 mutant D30A (receptor)
chain: B1 chain with D30A, E75R

Adhesion (relative to wild-type LAG-3) [2]: 0.83
B13: LAG-3 mutant H63A (receptor)
chain: B1 chain with H63A, E75R

Adhesion (relative to wild-type LAG-3) [2]: 0.89
B14: LAG-3 mutant D225L (receptor)
chain: B1 chain with E75R, D225L

fold increase of binding against wild-type LAG-3 [3]: > 3 fold
Adhesion (relative to wild-type LAG-3) [2]: 2.95
B15: LAG-3 mutant R76E (receptor)
chain: B1 chain with E75R, R76E

Adhesion (relative to wild-type LAG-3) [2]: 0.89
B16: LAG-3 mutant H56F (receptor)
chain: B1 chain with H56F, E75R

reduction of bound cpm against wild-type LAG-3 at comparable expression [1]: 40%
Adhesion (relative to wild-type LAG-3) [2]: 0.05
B17: LAG-3 mutant Y77F (receptor)
chain: B1 chain with E75R, Y77F

Adhesion (relative to wild-type LAG-3) [2]: 0.18
B18: LAG-3 mutant R88A (receptor)
chain: B1 chain with E75R, R88A

Adhesion (relative to wild-type LAG-3) [2]: 0.18
B19: LAG-3 mutant D109E (receptor)
chain: B1 chain with E75R, D109E
